For 18 molecules, Kd, koff and kon results are on record in patent publication US20250346644A1 (LATTICON SUZHOU BIOPHARMACEUTICALS, published 2025).

In general, Kd refers to the constant that tells how readily two partners part at equilibrium. Read a high Kd as a looser complex. One may read the koff as the first-order rate constant of dissociation. Low readings indicate a long-lived complex, high ones a short-lived complex. As a reminder, the kon is the second-order rate constant of association. A high value points to faster complex formation.

B1: K1G1 (antibody, V domains shown)
VH: QVQLVQSGAEVKKPGATVKISCKVSGDTITAYYMHWVRQAPGQGLEWIGRIDPEDDSTKYAENFKGRVTITADTSTDTAYMELSSLRSEDTAVYYCTTVTFYYSRELRWFAYWGQGTLVTVSS
VL: DIVLTQSPATLSLSPGERATLSCQASQYISNYLSWYQQKPGQAPRLLIYQATSLASGIPARFSGSRSGTDFTLTISSLEPEDFAVYYCLQHYSTPYTFGQGTKLEIK
B2: K2G2 (antibody, V domains shown)
VH: QVQLVQSGAEVKKPGATVKISCKVSGDTITAYYMHWVRQAPGQGLEWIGRIDPEDDSTKYAENFKGRVTITADTSTDTAYMELSSLRSEDTAVYYCTTITFYYSRELRWFAYWGQGTLVTVSS
VL: DIVLTQSPATLSLSPGERATLSCQASQYISNYLSWYQQKPGQAPRLLIYSATSLASGIPARFSGSRSGTDFTLTISSLEPEDFAVYYCLQHYSTPYTFGQGTKLEIK
B3: K3G5 (antibody, V domains shown)
VH: QVQLVQSGAEVKKPGATVKISCKVSGDTITAYYMHWVRQAPGQGLEWIGRIDPEDDSTKYAENFKGRVTITADTSTDTAYMELSSLRSEDTAVYYCTTVTFYYTRELRWFAYWGQGTLVTVSS
VL: DIVLTQSPATLSLSPGERATLSCQASQYIGNYLSWYQQKPGQAPRLLIYQATSLASGIPARFSGSRSGTDFTLTISSLEPEDFAVYYCLQHYSTPYTFGQGTKLEIK
B4: K2G4 (antibody, V domains shown)
VH: QVQLVQSGAEVKKPGATVKISCKVSGDTITAYYMHWVRQAPGQGLEWIGRIDPEDDSTKYAENFKGRVTITADTSTDTAYMELSSLRSEDTAVYYCTTVTFLYSRELRWFAYWGQGTLVTVSS
VL: DIVLTQSPATLSLSPGERATLSCQASQYISNYLSWYQQKPGQAPRLLIYSATSLASGIPARFSGSRSGTDFTLTISSLEPEDFAVYYCLQHYSTPYTFGQGTKLEIK
B5: K2G5 (antibody, V domains shown)
VH: QVQLVQSGAEVKKPGATVKISCKVSGDTITAYYMHWVRQAPGQGLEWIGRIDPEDDSTKYAENFKGRVTITADTSTDTAYMELSSLRSEDTAVYYCTTVTFYYTRELRWFAYWGQGTLVTVSS
VL: DIVLTQSPATLSLSPGERATLSCQASQYISNYLSWYQQKPGQAPRLLIYSATSLASGIPARFSGSRSGTDFTLTISSLEPEDFAVYYCLQHYSTPYTFGQGTKLEIK
B6: K2G10 (antibody, V domains shown)
VH: QVQLVQSGAEVKKPGATVKISCKVSGDTITAYYMHWVRQAPGQGLEWIGRIDPDDDSTKYAENFKGRVTITADTSTDTAYMELSSLRSEDTAVYYCTTITFYYTRELRWFAYWGQGTLVTVSS
VL: DIVLTQSPATLSLSPGERATLSCQASQYISNYLSWYQQKPGQAPRLLIYSATSLASGIPARFSGSRSGTDFTLTISSLEPEDFAVYYCLQHYSTPYTFGQGTKLEIK
B7: K3G2 (antibody, V domains shown)
VH: QVQLVQSGAEVKKPGATVKISCKVSGDTITAYYMHWVRQAPGQGLEWIGRIDPEDDSTKYAENFKGRVTITADTSTDTAYMELSSLRSEDTAVYYCTTITFYYSRELRWFAYWGQGTLVTVSS
VL: DIVLTQSPATLSLSPGERATLSCQASQYIGNYLSWYQQKPGQAPRLLIYQATSLASGIPARFSGSRSGTDFTLTISSLEPEDFAVYYCLQHYSTPYTFGQGTKLEIK
B8: K2G6 (antibody, V domains shown)
VH: QVQLVQSGAEVKKPGATVKISCKVSGDTITAYYMHWVRQAPGQGLEWIGRIDPDDDSTKYAENFKGRVTITADTSTDTAYMELSSLRSEDTAVYYCTTITFYYSRELRWFAYWGQGTLVTVSS
VL: DIVLTQSPATLSLSPGERATLSCQASQYISNYLSWYQQKPGQAPRLLIYSATSLASGIPARFSGSRSGTDFTLTISSLEPEDFAVYYCLQHYSTPYTFGQGTKLEIK
B9: K1G12 (antibody, V domains shown)
VH: QVQLVQSGAEVKKPGATVKISCKVSGDTITAYYMHWVRQAPGQGLEWIGRIDPDDDSTKYAENFKGRVTITADTSTDTAYMELSSLRSEDTAVYYCTTITFLYTRELRWFAYWGQGTLVTVSS
VL: DIVLTQSPATLSLSPGERATLSCQASQYISNYLSWYQQKPGQAPRLLIYQATSLASGIPARFSGSRSGTDFTLTISSLEPEDFAVYYCLQHYSTPYTFGQGTKLEIK
B10: K1G9 (antibody, V domains shown)
VH: QVQLVQSGAEVKKPGATVKISCKVSGDTITAYYMHWVRQAPGQGLEWIGRIDPEDDSTKYAENFKGRVTITADTSTDTAYMELSSLRSEDTAVYYCTTITFLYTRELRWFAYWGQGTLVTVSS
VL: DIVLTQSPATLSLSPGERATLSCQASQYISNYLSWYQQKPGQAPRLLIYQATSLASGIPARFSGSRSGTDFTLTISSLEPEDFAVYYCLQHYSTPYTFGQGTKLEIK
B11: K2G3 (antibody, V domains shown)
VH: QVQLVQSGAEVKKPGATVKISCKVSGDTITAYYMHWVRQAPGQGLEWIGRIDPDDDSTKYAENFKGRVTITADTSTDTAYMELSSLRSEDTAVYYCTTVTFYYSRELRWFAYWGQGTLVTVSS
VL: DIVLTQSPATLSLSPGERATLSCQASQYISNYLSWYQQKPGQAPRLLIYSATSLASGIPARFSGSRSGTDFTLTISSLEPEDFAVYYCLQHYSTPYTFGQGTKLEIK
B12: K3G4 (antibody, V domains shown)
VH: QVQLVQSGAEVKKPGATVKISCKVSGDTITAYYMHWVRQAPGQGLEWIGRIDPEDDSTKYAENFKGRVTITADTSTDTAYMELSSLRSEDTAVYYCTTVTFLYSRELRWFAYWGQGTLVTVSS
VL: DIVLTQSPATLSLSPGERATLSCQASQYIGNYLSWYQQKPGQAPRLLIYQATSLASGIPARFSGSRSGTDFTLTISSLEPEDFAVYYCLQHYSTPYTFGQGTKLEIK
B13: K2G7 (antibody, V domains shown)
VH: QVQLVQSGAEVKKPGATVKISCKVSGDTITAYYMHWVRQAPGQGLEWIGRIDPEDDSTKYAENFKGRVTITADTSTDTAYMELSSLRSEDTAVYYCTTITFYYTRELRWFAYWGQGTLVTVSS
VL: DIVLTQSPATLSLSPGERATLSCQASQYISNYLSWYQQKPGQAPRLLIYSATSLASGIPARFSGSRSGTDFTLTISSLEPEDFAVYYCLQHYSTPYTFGQGTKLEIK
B14: K1G8 (antibody, V domains shown)
VH: QVQLVQSGAEVKKPGATVKISCKVSGDTITAYYMHWVRQAPGQGLEWIGRIDPEDDSTKYAENFKGRVTITADTSTDTAYMELSSLRSEDTAVYYCTTITFLYSRELRWFAYWGQGTLVTVSS
VL: DIVLTQSPATLSLSPGERATLSCQASQYISNYLSWYQQKPGQAPRLLIYQATSLASGIPARFSGSRSGTDFTLTISSLEPEDFAVYYCLQHYSTPYTFGQGTKLEIK
B15: K1G11 (antibody, V domains shown)
VH: QVQLVQSGAEVKKPGATVKISCKVSGDTITAYYMHWVRQAPGQGLEWIGRIDPDDDSTKYAENFKGRVTITADTSTDTAYMELSSLRSEDTAVYYCTTITFLYSRELRWFAYWGQGTLVTVSS
VL: DIVLTQSPATLSLSPGERATLSCQASQYISNYLSWYQQKPGQAPRLLIYQATSLASGIPARFSGSRSGTDFTLTISSLEPEDFAVYYCLQHYSTPYTFGQGTKLEIK
B16: K3G3 (antibody, V domains shown)
VH: QVQLVQSGAEVKKPGATVKISCKVSGDTITAYYMHWVRQAPGQGLEWIGRIDPDDDSTKYAENFKGRVTITADTSTDTAYMELSSLRSEDTAVYYCTTVTFYYSRELRWFAYWGQGTLVTVSS
VL: DIVLTQSPATLSLSPGERATLSCQASQYIGNYLSWYQQKPGQAPRLLIYQATSLASGIPARFSGSRSGTDFTLTISSLEPEDFAVYYCLQHYSTPYTFGQGTKLEIK
B17: K2G8 (antibody, V domains shown)
VH: QVQLVQSGAEVKKPGATVKISCKVSGDTITAYYMHWVRQAPGQGLEWIGRIDPEDDSTKYAENFKGRVTITADTSTDTAYMELSSLRSEDTAVYYCTTITFLYSRELRWFAYWGQGTLVTVSS
VL: DIVLTQSPATLSLSPGERATLSCQASQYISNYLSWYQQKPGQAPRLLIYSATSLASGIPARFSGSRSGTDFTLTISSLEPEDFAVYYCLQHYSTPYTFGQGTKLEIK
B18: K3G1 (antibody, V domains shown)
VH: QVQLVQSGAEVKKPGATVKISCKVSGDTITAYYMHWVRQAPGQGLEWIGRIDPEDDSTKYAENFKGRVTITADTSTDTAYMELSSLRSEDTAVYYCTTVTFYYSRELRWFAYWGQGTLVTVSS
VL: DIVLTQSPATLSLSPGERATLSCQASQYIGNYLSWYQQKPGQAPRLLIYQATSLASGIPARFSGSRSGTDFTLTISSLEPEDFAVYYCLQHYSTPYTFGQGTKLEIK

The target of the assay is T1, hIL2-DM-his (human, UniProt P60568 21-153).
T1 construct: expressed in ExpiCHO-S cells, nickel-column purified; also called hIL-2 mutein containing two point mutations K64G and N90R (with a his-tag); not shown: his-tag
T1 sequence (P60568 21-153 K84G/N110R): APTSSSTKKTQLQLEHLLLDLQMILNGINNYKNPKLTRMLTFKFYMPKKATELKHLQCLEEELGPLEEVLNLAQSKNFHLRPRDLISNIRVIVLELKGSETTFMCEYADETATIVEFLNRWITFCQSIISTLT
Nature of the assay: BLI ForteBio, Ab on Protein A sensor.
B1 registered a Kd of 1.43 nM, a koff of 0.000491 s⁻¹ and a kon of 343000 M⁻¹ s⁻¹.

Consider B2, for which binding was characterised by a dissociation constant (Kd) of 1.33 nM, the koff turned out to be 0.000562 s⁻¹ and the on-rate constant (kon) worked out at 424000 M⁻¹ s⁻¹.

As to B3, the Kd was 3.72 nM, the koff came to 0.00124 s⁻¹ and the kon stood at 334000 M⁻¹ s⁻¹.

B4 displayed a Kd of 1.08 nM, a koff of 0.000455 s⁻¹ and a kon of 421000 M⁻¹ s⁻¹.

B5 yielded a Kd of 1.4 nM, a koff of 0.000553 s⁻¹ and a kon of 396000 M⁻¹ s⁻¹.

Molecule B6 gave a Kd of 0.973 nM, a koff of 0.000418 s⁻¹ and a kon of 429000 M⁻¹ s⁻¹.

Regarding B7, the Kd came to 2.91 nM, the koff worked out at 0.00118 s⁻¹ and the kon stood at 407000 M⁻¹ s⁻¹.

B8 yielded a Kd of 1.33 nM, a dissociation rate constant (koff) of 0.000593 s⁻¹ and a kon of 446000 M⁻¹ s⁻¹.

Regarding B9, the dissociation constant Kd came out at 0.927 nM, the koff is 0.000396 s⁻¹ and the kon came out at 428000 M⁻¹ s⁻¹.

B10: the equilibrium dissociation constant (Kd) worked out at 0.856 nM, the koff was found to be 0.000285 s⁻¹ and the kon came to 333000 M⁻¹ s⁻¹.

As to B11, the Kd came to 1.32 nM, the koff came out at 0.000512 s⁻¹ and the kon is 389000 M⁻¹ s⁻¹.

In the case of B12, the Kd was 3 nM, the off-rate constant (koff) amounted to 0.00122 s⁻¹ and the association rate constant (kon) came out at 408000 M⁻¹ s⁻¹.

B13 returned a Kd of 1.35 nM, a koff of 0.000489 s⁻¹ and a kon of 361000 M⁻¹ s⁻¹.

With B14, the Kd turned out to be 0.778 nM, the koff is 0.000291 s⁻¹ and the kon was determined as 374000 M⁻¹ s⁻¹.

Turning to B15, binding was put at a Kd of 0.928 nM, the koff was 0.000373 s⁻¹ and the on-rate (kon) is 401000 M⁻¹ s⁻¹.

The molecule B16 yielded a Kd of 3.34 nM, a koff of 0.00134 s⁻¹ and an on-rate constant (kon) of 400000 M⁻¹ s⁻¹.

The molecule B17 yielded an equilibrium dissociation constant (Kd) of 1.13 nM, a koff of 0.000507 s⁻¹ and an on-rate (kon) of 448000 M⁻¹ s⁻¹.

Molecule B18 came in with a Kd of 4.4 nM, a koff of 0.00186 s⁻¹ and a kon of 424000 M⁻¹ s⁻¹.
